Among the data in patent US20250011363A1, “OPTIMIZED SHORTENED PEPTIDE THAT BINDS TO ACETYLCHOLINE RECEPTOR, AND USE THEREOF” (SKINMED CO., LTD., priority 2021, published 2025) are Binding affinity (RU) values, retold here.

In this test the target is acetylcholine receptor. The experiment in a line: SPR, peptide at 10 uM, acetylcholine receptor immobilized on chip.

The molecule RKTMK [5mer-609] gave a Binding affinity (RU) of 32 RU.

Molecule RCHER [5mer-916] came in with a Binding affinity (RU) of 12 RU.

As for RYMDR [5mer-628], the Binding affinity (RU) was found to be 19 RU.

Molecule RYCAK [5mer-617] had a Binding affinity (RU) of 28 RU.

Regarding RAAKR [5mer-633], the Binding affinity (RU) was found to be 20 RU.

KNNIK [5mer-919]: the Binding affinity (RU) was 32 RU.

Consider RAWVR [5mer-930], for which the Binding affinity (RU) is 20 RU.

In turn, KNTGR [5mer-623] showed a Binding affinity (RU) of 19 RU.

As to RNNVR [5mer-918], the Binding affinity (RU) was 12 RU.

Consider KMSVR [5mer-602], for which the Binding affinity (RU) was 12 RU.

RPSPR [5mer-905] showed a Binding affinity (RU) of 30 RU.

Take KKSMK [5mer-621]: the Binding affinity (RU) turned out to be 13 RU.

As for KYTFR [5mer-929], the Binding affinity (RU) is 28 RU.

The molecule KCSFK [5mer-619] displayed a Binding affinity (RU) of 19 RU.

With RIHWK [5mer-606], the Binding affinity (RU) amounted to 25 RU.

As for RFSHR [5mer-632], the Binding affinity (RU) came to 33 RU.

The molecule RNCWK [5mer-926] returned a Binding affinity (RU) of 22 RU.

Molecule REHGK [5mer-911] returned a Binding affinity (RU) of 14 RU.

With KEHER [5mer-624], the Binding affinity (RU) is 22 RU.

KHMVR [5mer-928] showed a Binding affinity (RU) of 27 RU.

As for RNTWK [5mer-614], the Binding affinity (RU) came out at 29 RU.

As for KKKFK [5mer-921], the Binding affinity (RU) came to 21 RU.

RTAWK [5mer-932]: the Binding affinity (RU) was found to be 27 RU.

For the molecule KPDPK [5mer-904], the Binding affinity (RU) turned out to be 23 RU.

In the case of KMTHR [5mer-915], the Binding affinity (RU) is 28 RU.

Regarding KPKIK [5mer-920], the Binding affinity (RU) stood at 15 RU.

Regarding KMSPK [5mer-627], the Binding affinity (RU) is 30 RU.

As for RINVK [5mer-909], the Binding affinity (RU) was determined as 33 RU.

Consider RYMKK [5mer-933], for which the Binding affinity (RU) is 27 RU.

Turning to RIEER [5mer-607], the Binding affinity (RU) was found to be 25 RU.

The molecule RKHAK [5mer-906] displayed a Binding affinity (RU) of 31 RU.

For the molecule RETFK [5mer-935], the Binding affinity (RU) stood at 32 RU.

Molecule KCAPR [5mer-917] gave a Binding affinity (RU) of 11 RU.

Consider KDHIR [5mer-611], for which the Binding affinity (RU) came out at 33 RU.

In the case of RAEFR [5mer-613], the Binding affinity (RU) stood at 20 RU.

Turning to RDEDR [5mer-927], the Binding affinity (RU) was 19 RU.

RECFK [5mer-605] returned a Binding affinity (RU) of 22 RU.

RKEPK [5mer-603]: the Binding affinity (RU) was determined as 27 RU.

The molecule RCHFK [5mer-908] returned a Binding affinity (RU) of 25 RU.

In the case of KCWMK [5mer-923], the Binding affinity (RU) worked out at 19 RU.

Take KICMR [5mer-626]: the Binding affinity (RU) came out at 12 RU.

On to KDKGR [5mer-636], for which the Binding affinity (RU) is 11 RU.

RMMMR [5mer-634] displayed a Binding affinity (RU) of 26 RU.

On to RKEGK [5mer-604], for which the Binding affinity (RU) was 13 RU.

KMMMR [5mer-934] showed a Binding affinity (RU) of 17 RU.

RNEKK [5mer-924]: the Binding affinity (RU) stood at 27 RU.

Turning to KFCPR [5mer-616], the Binding affinity (RU) came out at 15 RU.

REDPK [5mer-902] registered a Binding affinity (RU) of 23 RU.

For the molecule RDSER [5mer-608], the Binding affinity (RU) is 20 RU.

RMSWK [5mer-618]: the Binding affinity (RU) worked out at 19 RU.

As to RITER [5mer-931], the Binding affinity (RU) came to 11 RU.

In turn, KCDHK [5mer-637] had a Binding affinity (RU) of 28 RU.

RHHKR [5mer-903] came in with a Binding affinity (RU) of 21 RU.

As for KCDDK [5mer-610], the Binding affinity (RU) came to 16 RU.

Consider KCTNR [5mer-901], for which the Binding affinity (RU) came to 30 RU.

For the molecule KHTFK [5mer-913], the Binding affinity (RU) was found to be 13 RU.

As for RPCFR [5mer-910], the Binding affinity (RU) amounted to 17 RU.

With KCTDK [5mer-612], the Binding affinity (RU) is 23 RU.

Take KCCNR [5mer-615]: the Binding affinity (RU) came out at 20 RU.

KDSVR [5mer-907] registered a Binding affinity (RU) of 18 RU.

In turn, RCMHK [5mer-620] returned a Binding affinity (RU) of 23 RU.

RMNGR [5mer-635] displayed a Binding affinity (RU) of 21 RU.

For RITFR [5mer-630], the Binding affinity (RU) was 30 RU.

As to RNHKR [5mer-936], the Binding affinity (RU) worked out at 29 RU.

In the case of RPANR [5mer-631], the Binding affinity (RU) was found to be 17 RU.

Molecule RPTMR [5mer-914] registered a Binding affinity (RU) of 26 RU.

Consider KKMGR [5mer-912], for which the Binding affinity (RU) is 16 RU.

The molecule RPTNK [5mer-629] displayed a Binding affinity (RU) of 32 RU.

As to RMWKR [5mer-922], the Binding affinity (RU) is 14 RU.

Molecule KDCFK [5mer-925] showed a Binding affinity (RU) of 25 RU.

Molecule RKPKR [5mer-622] yielded a Binding affinity (RU) of 22 RU.

KMCDR [5mer-625]: the Binding affinity (RU) came out at 33 RU.
